Results: patent CN117567617A (CHINA RESOURCES BIOMEDICAL CO LTD, dated 2024)

Experiments:
[1] = molecular target: T1, CLDN18.2 (species not stated); experiment: affinity measurement, method not described
T1 construct: whole, on cells; the form of the antigen in the ka/kd/KD measurement is not described; also called CLDN18.2过表达细胞; claudin18.2

[2] = molecular target: T1, CLDN18.2 (species not stated at that …); experiment: flow cytometry on CLDN18.2-overexpressing cells, MFI against antibody concentration

Kd [1]: 5.24 nM | koff [1]: 0.00172 s⁻¹ | kon [1]: 328000 M⁻¹ s⁻¹ | EC50 [2]: 0.62 µg/mL
B1: 全人源抗CLDN18.2抗体2A2 (CLDN-BC-2A2-hH1) (antibody, V domains shown)
VH: QVQLQQWGPGLVKPSQTLSLTCTVSGGSISSVGYYWSWIRQHPGQGLEWVGYIYYSGGTYYNPSLKSRVTISLDTSKNQFSLKLTSVTAADTAVYYCASYGSVSPYYYYYGMDVWGQGTTVTVSS
VL: DIVMTQSPSSVSASVGDRVTITCRASQGISSWLAWYQQKPGKAPNLLISAASSLQSGVPSRFSGNGSGTDFTLTISSLQPEDFASYYCQQANSFPITFGQGTRLEIK
notes: The label 2A2-hIgG1 points to a human IgG1 full antibody; Made by transient expression in ExpiCHO; also called CLN-2A2-hH1; 2A2-hIgG1
